Read-outs that look alike come from different tables or passages of the source.
Key:
Sprague–Dawley rats [1] = settings: rat, in vivo, ip, 6 mg/kg
Experimental: In this set of experiments, rats were treated with the highly emetogenic chemotherapeutic agent, cisplatin. Using this gold-standard preclinical model of CINV, we first determined the effects of a single systemic dose of GRASP administered shortly before cisplatin.
Adult male Sprague–Dawley rats (Charles River) weighing ∼250–270 g on arrival (N = 158) were housed under a 12 h:12 h light/dark cycle in a temperature- and humidity-controlled vivarium (23 ± 1 °C). Animals were fed ad libitum with a standard chow diet (Purina LabDiet 5001) with ad libitum access to tap water and kaolin pellets (Research Diets, K50001) for at least 5 days before the start of the experiment. All animals were naïve to experimental drugs and test treatments before the beginning of the experiment. Rats were habituated in single-hanging wire cages and received saline IP injections every day for 1 week before the onset of the experiment. […]
Using a similar paradigm, the impact of GRASP on cisplatin-induced nausea and anorexia was assessed. […] Food intake and kaolin consumption were measured at 3, 6, and 24 h postinjection.
Food intake and kaolin consumption were analyzed using repeated measures 2 × 3 ANOVAs, 2 × 2 ANOVAs, or one-way ANOVAs followed by Tukey’s post hoc tests. All data were expressed as means ± SEM. […] All data were analyzed using Prism 9 GraphPad Software (San Diego, California).

[2] = molecular target: purified human GFRAL extracellular domain (ECD); settings: untagged GDF15, purified human GFRAL ECD, SPR and flow cytometry, ref 6 (Yang et al.), read-out: reported KD of GDF15 for human GFRAL, cited from earlier work
Experimental: Peptide binding to a segment of recombinant human GFRAL containing the complete known binding domain of GDF15 and the remaining extracellular domain (S19–E351) of the receptor as defined by UniProt (Q6UXV0) was evaluated by SPR (Figure 1). Initial screening aimed to confirm GFRAL immobilization and system functionality by evaluating the dose–response profile to a commercial formulation of HEK293 cell-derived recombinant human GDF15. […] GRASPCy5 binding was evaluated by flow cytometry and compared with results from untransfected HEK293 cells.

Sprague–Dawley rats [3] = assay: GDF15-induced anorexia and pica (kaolin intake) in rats; type: in vivo, rat
From the text: In initial experiments, we examined whether central administration of GRASP (i.e., directly into the fourth ventricle or fourth ICV) would counteract the effects of centrally delivered GDF15 in rats. Because the AP/NTS is located on the dorsal surface of the hindbrain at the caudal end of the fourth ventricle, this route of administration facilitates targeted and selective drug delivery near the sites of GFRAL expression. To assess the impact of these interventions, we measured pica behavior, i.e., the ingestion of non-nutritive substances such as kaolin,[29] as this represents an accurate and reliable proxy for malaise in rats and has been used to examine the effects of agents known to cause nausea in humans.[29]−[31]
To increase the translational impact of this study and more closely mimic a potential clinical scenario, we conducted a dose–response study in which both GRASP and GDF15 were administered systemically to rats via the intraperitoneal (IP) route.
All systemic treatments were delivered by intraperitoneal (IP) injection.
To evaluate the impact of GRASP on GDF15-induced anorexia and nausea (proxied by kaolin ingestion) in rats (n = 10, 400–450 g), GRASP (300 and 3000 pmol), or vehicle control was administered centrally immediately before intraventricular infusion of GDF15 (30 pmol). […]
All data were expressed as means ± SEM.

[4] = molecular target: T1, Recombinant His-tagged human GFRAL (Ser19–Glu351) (human, UniProt Q6UXV0 19-351); assay: SPR; GFRAL (S19-E351) immobilised by amine coupling (EDC/NHS) on a high-capacity carboxyl sensor (Nicoya OpenSPR); peptides or GDF15 as analyte; HBSS pH 7.4 running buffer without BSA; 20 uL/min; settings: both partners purified
T1 construct: GDNF family receptor alpha-like (GFRAL), human, extracellular domain S19-E351 as defined by UniProt Q6UXV0; also called GFRAL–ECD; GFRAL (S19–E351); source: bought: ACRO Biosystems (GFA-H52H3), expressed in HEK293 cells
T1 sequence (looked up): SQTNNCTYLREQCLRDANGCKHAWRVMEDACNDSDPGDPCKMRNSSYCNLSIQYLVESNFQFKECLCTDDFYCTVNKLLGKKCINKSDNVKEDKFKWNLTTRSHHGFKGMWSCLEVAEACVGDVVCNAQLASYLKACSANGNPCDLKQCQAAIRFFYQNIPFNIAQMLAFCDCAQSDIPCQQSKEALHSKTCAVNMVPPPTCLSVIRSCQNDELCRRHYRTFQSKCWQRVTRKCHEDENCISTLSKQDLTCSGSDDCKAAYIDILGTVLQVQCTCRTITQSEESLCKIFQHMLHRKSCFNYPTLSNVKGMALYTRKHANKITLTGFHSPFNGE

[5] = molecular target: T2, recombinant human GFRAL (S19–E351) (Homo sapiens, UniProt Q6UXV0); assay: SPR, high-capacity carboxyl sensor with immobilised GFRAL, peptide or GDF15 as analyte; settings: HEK293-derived recombinant human GDF15, TraceDrawer kinetic evaluation, read-out: binding affinity (KD) of GDF15 control to GFRAL
T2 construct: contained a truncated Ser19–Glu351 domain was used for all SPR experiments; His; purchased ACRO Biosystems GFA-H52H3; host or cells: HEK293 cells
T2 sequence (Q6UXV0 19-351): T1 sequence (looked up)
Experimental: Peptide binding to a segment of recombinant human GFRAL containing the complete known binding domain of GDF15 and the remaining extracellular domain (S19–E351) of the receptor as defined by UniProt (Q6UXV0) was evaluated by SPR (Figure 1). Initial screening aimed to confirm GFRAL immobilization and system functionality by evaluating the dose–response profile to a commercial formulation of HEK293 cell-derived recombinant human GDF15. […] For example, Yang et al.[6] reported a KD of ∼1 nM for the interaction between untagged GDF15 and purified human GFRAL extracellular domain (ECD) and binding of GDF15 to HEK293 transfectants expressing human GFRAL-EDC (Ser19–Glu351) and GDF15 via SPR and flow cytometry, respectively.
The binding of each peptide to the ECD of GFRAL was initially confirmed from the results of carboxyl-sensor SPR (SI, Figure S9) with bound GFRAL–ECD. A broad range of binding affinities (KD values ranging from […]) was observed. […] We hypothesized this may be due to obstruction of the binding site of GFRAL–ECD in its immobilized state. Thus, we opted for a different SPR approach in which we conjugated GRASP to biotin and immobilized the peptide to the sensor surface, this time via biotin–streptavidin affinity. Increasing concentrations of GFRAL–ECD were then evaluated as the mobile phase against the immobilized GRASP. […]

Molecule: cis-diammineplatinum dichloride [cisplatin]
- kaolin consumption and anorexia induced by cisplatin (Sprague–Dawley rats [1]): leads to significant kaolin consumption and anorexia

B1: Recombinant human growth differentiation factor 15 (GDF15) (ligand, UniProt Q99988 195-308, looked up)
chain: ARARNGDHCPLGPGRCCRLHTVRASLEDLGWADWVLSPREVQVTMCIGACPSQFRAANMHAQIKTSLHRLKPDTVPAPCCVPASYNPMVLIQKTDTGVSLQTYDDLLAKDCHCI
notes: Growth differentiation factor 15, human, HEK293-derived commercial recombinant protein; commercial GDF15 is commonly the mature C-terminal cytokine (a disulfide-linked dimer), so the limits should be checked with the supplier; source: bought: Abcam (ab302451), expressed in HEK293 cells
- Kd ([2]; listed as native ligand): 1 nM
- Kd [2]: ~1 nM
- kaolin consumption and anorexia induced by GDF15, central (Sprague–Dawley rats [3]; GDF15 30 pmol central administration, vs vehicle): induced significant kaolin consumption and anorexia
- kaolin consumption and anorexia induced by GDF15, systemic (Sprague–Dawley rats [3]; GDF15 20 μg/kg IP): reliably induced kaolin consumption and modest, albeit statistically significant anorexia
- Kd [4]: 6.02 nM
- Kd [5]: 6 nM
